# According to article PMC6445123 (Scientific Reports, 2019):
# Marks after values point to notes of the source that are not given here.
# T1: recombinant active Casp6 (Casp6-WT) (Homo sapiens, UniProt P55212, INS179NQTEKLDTNITEVD)
# T1 construct: generating mainly large subunit with a linker (LS-L), small subunit (SS), and a minor amount of large subunit (LS); His (C); made in house; host or cells: E. coli BL21(DE3)pLysS
# T1 sequence (P55212 24-193 limits assumed): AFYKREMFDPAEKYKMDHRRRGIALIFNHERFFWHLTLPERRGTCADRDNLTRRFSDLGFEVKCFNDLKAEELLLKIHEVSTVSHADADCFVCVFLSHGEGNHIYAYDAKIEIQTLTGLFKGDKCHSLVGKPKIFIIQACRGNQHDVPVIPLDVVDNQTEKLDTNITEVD
# T1 sequence (P55212 194-293 limits assumed): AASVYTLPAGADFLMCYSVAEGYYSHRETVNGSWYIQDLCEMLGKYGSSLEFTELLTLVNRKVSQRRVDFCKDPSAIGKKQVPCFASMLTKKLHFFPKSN
# Tests used:
# [1] = biological target: T1, recombinant active Casp6 (Casp6-WT); assay: Fluorescence-based Ac-VEID-AFC cleavage assay (Casp6 activity, IC50 determination); assay type: biochemical; details: for % Inhibition with 100 µM compound (fluorescence assay) / IC50: 10 µM Ac-VEID-AFC; for % Inhibition with 100 µM compound (fluorescence assay): 20 nM Casp6, relative to 1% DMSO control; for fold increase in IC50 (reduction in potency) compared to C13: Casp6-WT; for IC50: fluorescence assay, 20 nM Casp6 active sites, read-out: IC50
# Description: To assess the potency of in silico hits, a fluorescence-based Ac-VEID-AFC cleavage assay was used to measure recombinant active Casp6 reaction rate in the absence or presence of 100 µM concentration of compounds. A 30% inhibition cut off was arbitrarily chosen for further investigation of putative inhibitors. […] AFC signal interference by compound intrinsic fluorescence was ruled out (Fig. S4). Casp6 inhibition was confirmed for seven compounds (C7, C13, C14, S2, S10, S11 and S13) using a colorimetric Ac-VEID-pNA cleavage assay (Table 2, Fig. S3).
# (§1) Casp6 active sites were quantified using zVAD-FMK (N-benzyloxycarbonyl-Val-Ala-Asp-(O-methyl)-fluoromethylketone, MP Biomedicals, Santa Ana, CA, USA)[51],[64]. Casp6 activity was measured in Stennicke’s buffer (SB: 20 mM piperazine-N,N′-bis-(2-ethanesulfonic acid) pH 7.2, 100 mM NaCl, 10 mM DTT, 1 mM EDTA, 0.1% 3-[(3-cholamidopropyl)-dimethylammonio]-2-hydroxy-1-propanesulfonic acid, 10% sucrose)[65] using 40 µM Ac-VEID-AFC (Ac-Val-Glu-Ile-Asp-7-Amino-4-trifluoromethylcoumarin, Enzo Life Sciences, Farmingdale, NY, USA)[64] and 10-250 nM active site titrated Casp6. Reactions were initiated by Ac-VEID-AFC addition and followed for 20 min at 37 °C in a black clear bottom 96-well microplate (Costar, Corning, NY, USA) in Synergy H4 Hybrid instrument (BioTek, Winooski, VT, USA) with excitation/emission at 380/505 nm. Released AFC was calculated from AFC standard curve (0-25 µM). Casp6 VEIDase activity (released pmol AFC/min) was calculated from the initial linear reaction part. Ac-VEID-AFC hydrolysis initial velocities were measured with 10 nM active-site titrated Casp6 and […] Ac-VEID-AFC. Initial velocities v versus substrate concentration [S] were fit to a rectangular hyperbola using Michaelis-Menten equation in GraphPad Prism 5 (GraphPad Software, La Jolla, CA, USA).
# In fluorescence-based Casp6 activity assay, 10 µM Ac-VEID-AFC was added to 20 nM Casp6 in SB with 100 μM compound and 1% dimethyl sulfoxide (DMSO), and reaction rate was measured for 20 min at 37 °C as above. Compound potency was calculated by normalising Ac-VEID-AFC cleavage rate to 1% DMSO control. In colorimetric Casp6 activity assay, 200 µM Ac-VEID-pNA (N-acetyl-Val-Glu-Ile-Asp-p-nitroanilide, Enzo Life Sciences) was added to 200 nM Casp6 in SB with 100 μM compound, and Ac-VEID-pNA cleavage rate was measured at 37 °C for 30 min in clear 96-well plate (Sartstedt, Nümbrecht, Germany) using Synergy H4 plate reader at 405 nm. Absorbance was converted to the released pNA amount based on a standard curve of 0–250 µM pNA. Cleavage rates were calculated from the linear assay phase and were normalised to 1% DMSO control. In Casp6-C163A cleavage assay, 0.5 ng/µl Casp6-WT was preincubated with 100 µM inhibitor, 5 µM Q-VD-OPh or 1% DMSO in SB (30 min, RT), followed by transfer on ice, addition of 0.5 µg/µl Casp6-C163A, and incubation (37 °C, 5, 10 and 15 min). Reactions were stopped by adding SDS-PAGE sample buffer (62.5 mM Tris pH 6.8, 2% SDS, 0.1 M DTT, 0.01% Bromphenol Blue, 10% glycerol) and heating (5 min, 95 °C). Samples (2 µl) were analysed on 15% SDS-PAGE gels, proteins were stained with Coomassie blue, and gels were de-stained with 10% acetic acid. The intensities of protein bands were quantified from scanned gels using ImageJ. The band intensity of Casp6-C163A without a prodomain was plotted against the time and the Casp6-C163A cleavage rates were calculated from the slopes of linear plots. The % activity of Casp6-WT in the presence of inhibitors was calculated relative to DMSO control.
# IC50 values were determined against 20 nM Casp6 active sites in fluorescence-based Casp6 activity assay with 10 µM Ac-VEID-AFC and 1 nM-500 µM inhibitor. IC50 was calculated with GraphPad Prism 5 by a nonlinear regression fit for log inhibitor vs relative Casp6 activity (% DMSO control) using a Hill slope of – 1, and top and bottom constraints of 100 and 0, respectively.
# [2] = Ac-VEID-AFC hydrolysis kinetics of recombinant Casp6 variants (Michaelis-Menten); assay type: biochemical, human; details: for Km / kcat: Ac-VEID-AFC hydrolysis, mean ± SD
# Excerpt: In this study, we investigated how naturally occurring rare missense variants of human CASP6 affect Casp6 activity and structure. […] A34, E35, A109, and T182 are not conserved in 12 human caspases and in Casp6 from different species (Fig. 1a,b). Recombinant Casp6-WT and the four variants were expressed in E. coli, purified, and active site titrated (Fig. S2) for functional analyses. Like Casp6-WT, Casp6 variants, underwent complete self-processing at TETD23, and TEVD193 sites, and slight self-cleavage at the DVVD179 site, generating mainly large subunit with a linker (LS-L), small subunit (SS), and a minor amount of large subunit (LS) (Fig. 1c,d).
# as §1
% Inhibition with 100 µM compound (fluorescence assay) [1],Molecule,Km [2] [µM],kcat [2] [s⁻¹],other results
2.3 ± 3.1^a %,COC(=O)c1cc(CN)cc(NC(=O)c2ccco2)c1 [Compound C13B],–,–,potency against Casp6 (in words) [1]: low potency
5.5 ± 4.1^a %,COC(=O)c1cc(CNC(=O)c2c(-c3ccccc3)noc2C)cc(NC(=O)c2ccco2)c1 [Compound C13D],–,–,fold increase in IC50 (reduction in potency) compared to C13 [1]: 155 fold
−8.3 ± 1.7^a %,COC(=O)c1cc(CNC(=O)C(C)(C)C)cc(NC(=O)c2ccco2)c1 [Compound C13E],–,–,potency against Casp6 (in words) [1]: low potency
43.2 ± 10.9^a %,COC(=O)c1cc(CNC(=O)C2(c3ccc(Cl)cc3)CCC2)cc(NC(=O)c2ccco2)c1 [Compound C13F],–,–,fold increase in IC50 (reduction in potency) compared to C13 [1]: 2 fold; IC50 [1]: 27 ± 1.6 µM
55.5 ± 8.8^a %,COC(=O)c1cc(CNC(=O)c2cc(C)cc(C)c2)cc(NC(=O)c2ccco2)c1 [Compound C13G],–,–,fold increase in IC50 (reduction in potency) compared to C13 [1]: 2 fold; IC50 [1]: 21.5 ± 2 µM; potency for Casp6 of in-house synthesised compound compared to commercial compound ([1]; synthesised in the authors' laboratory vs commercial source): lower potency
–,"Casp6-E35K: recombinant rare natural human Casp6 missense variant E35K (protein, left off: His (from the plasmid name pET23b-Casp6-His), end not stated, state not stated) chain 1: AFYKREMFDPAKKYKMDHRRRGIALIFNHERFFWHLTLPERRGTCADRDNLTRRFSDLGFEVKCFNDLKAEELLLKIHEVSTVSHADADCFVCVFLSHGEGNHIYAYDAKIEIQTLTGLFKGDKCHSLVGKPKIFIIQACRGNQHDVPVIPLDVVDNQTEKLDTNITEVD chain 2: AASVYTLPAGADFLMCYSVAEGYYSHRETVNGSWYIQDLCEMLGKYGSSLEFTELLTLVNRKVSQRRVDFCKDPSAIGKKQVPCFASMLTKKLHFFPKSN",37.1 ± 4.9,1.71 ± 0.13,fold reduced catalytic efficiency kcat/KM compared with Casp6-WT [2]: ~ 2 fold
–,"Casp6-L200A: Casp6 L200A alanine mutant from full-length construct, poorly self-processed (protein, UniProt P55212 1-293, looked up, variant L200A, full-length, Casp6 L200A alanine mutant from full-length construct, poorly self-processed) MSSASGLRRGHPAGGEENMTETDAFYKREMFDPAEKYKMDHRRRGIALIFNHERFFWHLTLPERRGTCADRDNLTRRFSDLGFEVKCFNDLKAEELLLKIHEVSTVSHADADCFVCVFLSHGEGNHIYAYDAKIEIQTLTGLFKGDKCHSLVGKPKIFIIQACRGNQHDVPVIPLDVVDNQTEKLDTNITEVDAASVYTAPAGADFLMCYSVAEGYYSHRETVNGSWYIQDLCEMLGKYGSSLEFTELLTLVNRKVSQRRVDFCKDPSAIGKKQVPCFASMLTKKLHFFPKSN",316 ± 162,0.05 ± 0.03,fold higher KM compared to Casp6-WT or Casp6-WT-LS-SS [2]: 10 fold; fold reduction in kcat compared to Casp6-WT [2]: 45 fold
–,"Casp6-A34E: recombinant rare natural human Casp6 missense variant A34E (protein, UniProt P55212 1-293, looked up, variant A34E) MSSASGLRRGHPAGGEENMTETDAFYKREMFDPEEKYKMDHRRRGIALIFNHERFFWHLTLPERRGTCADRDNLTRRFSDLGFEVKCFNDLKAEELLLKIHEVSTVSHADADCFVCVFLSHGEGNHIYAYDAKIEIQTLTGLFKGDKCHSLVGKPKIFIIQACRGNQHDVPVIPLDVVDNQTEKLDTNITEVDAASVYTLPAGADFLMCYSVAEGYYSHRETVNGSWYIQDLCEMLGKYGSSLEFTELLTLVNRKVSQRRVDFCKDPSAIGKKQVPCFASMLTKKLHFFPKSN",22.7 ± 0.8,2.04 ± 0.10,–
–,"Casp6-WT: recombinant wild-type human Casp6 expressed in E. coli from full-length construct (protein, UniProt P55212 1-293, looked up, full-length, recombinant wild-type human Casp6 expressed in E. coli from full-length construct) MSSASGLRRGHPAGGEENMTETDAFYKREMFDPAEKYKMDHRRRGIALIFNHERFFWHLTLPERRGTCADRDNLTRRFSDLGFEVKCFNDLKAEELLLKIHEVSTVSHADADCFVCVFLSHGEGNHIYAYDAKIEIQTLTGLFKGDKCHSLVGKPKIFIIQACRGNQHDVPVIPLDVVDNQTEKLDTNITEVDAASVYTLPAGADFLMCYSVAEGYYSHRETVNGSWYIQDLCEMLGKYGSSLEFTELLTLVNRKVSQRRVDFCKDPSAIGKKQVPCFASMLTKKLHFFPKSN",31.2 ± 6.7,2.27 ± 0.30,–
–,"Casp6-K284A-LS-SS: fully processed Casp6 K284A from co-expression of large and small subunits (protein, UniProt P55212 1-293, looked up, variant K284A) MSSASGLRRGHPAGGEENMTETDAFYKREMFDPAEKYKMDHRRRGIALIFNHERFFWHLTLPERRGTCADRDNLTRRFSDLGFEVKCFNDLKAEELLLKIHEVSTVSHADADCFVCVFLSHGEGNHIYAYDAKIEIQTLTGLFKGDKCHSLVGKPKIFIIQACRGNQHDVPVIPLDVVDNQTEKLDTNITEVDAASVYTLPAGADFLMCYSVAEGYYSHRETVNGSWYIQDLCEMLGKYGSSLEFTELLTLVNRKVSQRRVDFCKDPSAIGKKQVPCFASMLTAKLHFFPKSN",27.7 ± 2.7,2.8 ± 0.2,–
–,"Casp6-L200A-LS-SS: fully processed Casp6 L200A from co-expression of large and small subunits (protein, UniProt P55212 1-293, looked up, variant L200A) MSSASGLRRGHPAGGEENMTETDAFYKREMFDPAEKYKMDHRRRGIALIFNHERFFWHLTLPERRGTCADRDNLTRRFSDLGFEVKCFNDLKAEELLLKIHEVSTVSHADADCFVCVFLSHGEGNHIYAYDAKIEIQTLTGLFKGDKCHSLVGKPKIFIIQACRGNQHDVPVIPLDVVDNQTEKLDTNITEVDAASVYTAPAGADFLMCYSVAEGYYSHRETVNGSWYIQDLCEMLGKYGSSLEFTELLTLVNRKVSQRRVDFCKDPSAIGKKQVPCFASMLTKKLHFFPKSN",196 ± 84.4,2.8 ± 0.8,fold higher KM compared to Casp6-WT or Casp6-WT-LS-SS [2]: 8 fold
